Paper PMC10306287, “Computational design of the temperature optimum of an enzyme reaction” (Science Advances, 2023)
Each block holds one molecule with its values, some of them ahead of it.

How the values were obtained:
AHA (WT AHA α-amylase) = target: T1, AHA (WT AHA α-amylase) (Pseudoalteromonas haloplanktis, UniProt P29957); test: steady-state hydrolysis, 96-well spectrophotometer, nonlinear regression; assay type: biochemical; settings: 25 °C, PBS, 60 nM enzyme
T1 construct: gene amy; mature peptide residues 25-477, signal peptide excluded, codon-optimised in pET-22b(+), E. coli NiCo21(DE3), HisTrap purified (tag not described)

[1] = substrate: O=[N+]([O-])c1ccc(O[C@H]2O[C@H](CO)[C@@H](O[C@H]3O[C@H](CO)[C@@H](O[C@H]4O[C@H](CO)[C@@H](O)[C@H](O)[C@H]4O)[C@H](O)[C@H]3O)[C@H](O)[C@H]2O)c(Cl)c1; test: as above; assay type: biochemical, Pseudoalteromonas haloplanktis; settings: 25 °C, PBS, 60 nM enzyme

Km (AHA (WT AHA α-amylase)): 2240 ± 220 µM
Molecule: O=[N+]([O-])c1ccc(O[C@H]2O[C@H](CO)[C@@H](O[C@H]3O[C@H](CO)[C@@H](O[C@H]4O[C@H](CO)[C@@H](O)[C@H](O)[C@H]4O)[C@H](O)[C@H]3O)[C@H](O)[C@H]2O)c(Cl)c1 [2-chloro-4-nitrophenyl-α-D-maltotrioside]

B1: AHA (WT AHA α-amylase) (Pseudoalteromonas haloplanktis) (protein)
chain: TPTTFVHLFEWNWQDVAQECEQYLGPKGYAAVQVSPPNEHITGSQWWTRYQPVSYELQSRGGNRAQFIDMVNRCSAAGVDIYVDTLINHMAAGSGTGTAGNSFGNKSFPIYSPQDFHESCTINNSDYGNDRYRVQNCELVGLADLDTASNYVQNTIAAYINDLQAIGVKGFRFDASKHVAASDIQSLMAKVNGSPVVFQEVIDQGGEAVGASEYLSTGLVTEFKYSTELGNTFRNGSLAWLSNFGEGWGFMPSSSAVVFVDNHDNQRGHGGAGNVITFEDGRLYDLANVFMLAYPYGYPKVMSSYDFHGDTDAGGPNVPVHNNGNLECFASNWKCEHRWSYIAGGVDFRNNTADNWAVTNWWDNTNNQISFGRGSSGHMAINKEDSTLTATVQTDMASGQYCNVLKGELSADAKSCSGEVITVNSDGTINLNIGAWDAMAIHKNAKLNTSSAS
notes: mature peptide residues 25-477, signal peptide excluded, codon-optimised in pET-22b(+), E. coli NiCo21(DE3), HisTrap purified (tag not described)
Km [1]: 2810 ± 110 µM | kcat [1]: 1.775 ± 0.11 s⁻¹
